Assay: label from the status in PepcDB records
In the case of “MVSSSLSLTTLAGGTLLLKGSPSTLFYKHGRTLFIVDPGHGRKRAKQISKAAEKLGGEAVAIITHFHSDHLSTLYQGFQPSTALAPVKDLAMVQDRVMRLHYTFGYPFTGAEDYLLFKAEDVDNVEPLEAERIKPLRLVPLPGHTPGQTGVETPDGVLYAADSIFGERVLQTYAVPYHSNPCQALETLTRLRDRVNRLEVIVPSHGKPVKGEEAERLLEMNIERLEDAWTALTEELSRAPASVGLLASTLMKRYGAEATPTLAILVETAVRGYIGCHGAELEPILESGVVKWRVRRR”, the protein production was “failed”. For “MVSTLGSDTFTSISAHDLHGKLGNIHLIDVRENDDFKEGHIPTSRNIPMDILLKEPEKYINKTDEYYIVCQAGVKSEKTCKELWSKGYKVINIKDGTDSYKQPLEHHHHHH”, the protein production was “failed”. With “MVSTVRTVLGDVLPEHLGVCDAHDHLFFGSPQLPGQELRDASAARAELAAFREQGGGSVVQWTPYGLGRRAADLPLLSRDTGVHVVAATGLHQAVHYDAGTLAELRGRLADTFVAELTTGIGPSGVRAGLIKVAGGFHALDAHARWTMTAAAEAHHATGAPIAVHLELGTGALDVLDLLCGESGVPPHRVILGHLNRSPDFTVHRQAAEAGAFLAFDGPSRANHATDWRMPDALRALAEAGFGHRLLLGGDTTTAAARSVNGGPGLPYLLRRLRPRLEQALGKDLVGRIFTENPGRAFGVEWR” the protein production was “failed”. In the case of “MVSVGGDSVADSTVNQAKQSIRRSESITMERIVSFTLEEVPESIAKLEDKLFSYLLDLEGLASGRQRQTMSGEVGFGVLKAIDDQTIQDRLHW”, the protein production was “failed”. With “MVSVSVVIATLKPRDEIEAIQCLEDQTFDDFEVIVCDKSPVTRARNEGIRQSSSDKIVFLDDDSRPQPGYLEKANDVLETEAAYAGRTIHPVDDVFARHFTAHYDWGGDPCYVDHFWGCNMGVHRDVFKTVGGWDEEMGWGHEEKELARRVRSEFDIRYDPELVVDHPYASSITDYWKKQYKLETKSPYYWSKCNVSRADQLKNIFCETFDPLNYVRITPVATMIEAGSTVAKTAGRLRGFLDHTHHEEGRGGVPDIDRPSQSPERSGLEHHHHHH” the protein production was “failed”. For “MVSWHPSVYLAQRTSKAAKNILAAPPLILSISFIFLILIGTLILKLPISTTVPVTWSQSLFNATSAVTVTGLVVFDVGTVYTTFGQVVIALLIQLGGLGIMTFAIVTLLALGAKIGFLQNTIAKEAYNSTNTATLVTTAKSVLIFSLCVELIGMIILAVSWSDELGWRTSLFHGFFYTISAFNNAGIGLSPDSLMPYVEDPIINLTITALFIIGGLGFTVWIDLWRKKRWDKLTTYSKMMIIGTISINAIAVLAIYCIEYNNPKTLVPLSETGKWLASWFQAVTPRTAGFNTLAMNELEDATTAIMLMLMFIGGGSLSTASGIKVVTFMVLILATYGYLRRYDFVYVYHRGISKDTISKALALAMISVGTIWASIFFLLLSENASMIDIIFEAVSAFGTVGLSRGLTSNLTVTGQFIIIFLMFMGRLGPLTLAYFLASPKSKRIRYPETKLTIG”, the protein production was “failed”. In the case of “MVSYKILSVANKLKNIRDKYGLSQEDLAGNEITRNLISQIEHNKANLTRSAAEIMLKNLKKICDKKNVQVDEDINYLMEDEKSQAIKVLDKYIDDLRDLTIYKDNVFINKLREVEDFLVTWDFRDKKITIFELAGDYFSSTNDFYNASLYYEKAKALIDINIYSDNIVHILRKLSMTYYYMLRYQDDINCCEFALKQFKNMDEEYRCIFLFNSSLCYGQLKKYDLALKRLNEVESIIKNIDQNKYYEVLIQKAICYQWMKEYQKSLDIYNKLLESIDKSDYEKYLFILVNSSDIYVENSNFEKAESNLRIILENINNLNESSTLLPSTYLEMSRILKKLGYTKDAELYCLKSLNYAKRNTHYYLVNDIYGELLDIYKTLNVPEKVQTIKDEFFSNSSRDKNLNSKLMFKLLDFYFATNDIHSIKEIYDFSKNFIQERMINLCY”, the protein production was “failed”. With “MVTDKSKKAKTEEENVEQIDAELVLSIEKLQEIQDDLEKINEKASDEVLEVEQKYNVIRKPVYDKRNEIIKTIPDFWLTAFLSHPALGELLTEEDQKIFKYLSSLDVEDAKDVKSGYSITFSFNPNPFFEDGKLTKTFTFLEEGTTKITATPIKWKEGKGLANGVNHEKNGNKRALPEESFFTWFSDAQHKEDVEDEMQDEVADIIKEDLWPNPLTYFNNDADEEDFDGDDDGDEEEKEGDSDEDDDEEDEVGEE” the protein production was “failed”. For “MVTGYEALERHRGVRRPRRKLSRREKHAWKKAQKYELKLHKAHEKEERKLAKQAAKQAAREEKAAQKQAKKAERHKKKTKPPGSVKSSGKKGVAKKISSTNKDSRNKGKNITAQQSIPYREMGKDGICRVEDGYYSKTIRFYDINYQLAQNEDKNAIFENWCDFLNYFDSTIHFQLSFINHHSNMTEYEDVIRIKKQNDSFDDLRMEFAQMLRNQLAKGNNGLIRTKYITFGIEADNIREAKPKLERIETDILNNFKVFGVSAYPLNGAERLQIMYETFNQNVKVPFRFSYDDMLRTGLNTKDYIAPSSFLFKNGKDFQMGDTVGAVSYLQILAPELTDKMLAEFLEMDCNLLVNLHIQSIDQMKAIKLVKSKVTDINRMKIEEQKKAVRSGYDMDIIPSDLNTYGGEAKRLLEDLQSRNERMFLVTVVFLNTAKNKQELENVVFQTAGIAQKYNCALKRLDYQQEQGLMSSLPLGRNWIPIKRALTTTSTAIFVPFTTQELFMGGESIYYGLNALSNNLIMADRKKLKNPNGLILGTPGSGKSFAAKREITNVFIVTKDDIIICDPEGEYFPLVRAFNGQVIRISPTSHDYINPMDININYADDDDPLSLKSDFILSLCELVVGGKNGLEPVEKTIIDRCVRLVYQDYLADPVPEKMPILEDLYNLLRKQEEAESQRLATALEIYVNGSLKVFNHRTNVELNNRLVCFDIKDLGKQLKKLGMLIVQDQVWNRVTVNRSAHKSTRYYIDEFHLLLKEEQTAAYSVEIWKRFRKWGGIPTGITQNVKDLLASREIENIFENSDFILMLNQASGDRQILAKQLNISTHQLSYVTNSGEGEGLIFYGNTIIPFKDRFDNTLMLYALMSSKPEDVEKREKLGIKGRDDS”, the protein production was “failed”. In the case of “MVTKEQVVEALEGIVDPFLHKTLKETSAIKEVTVKPEKEHVSVKIAIVKTGTAEQMQLQSGIVKLVKELGAATVGLRFAEFTEEELAQFAPEQEEEQSESLLSPNSKTTFLAVASGKGGVGKSTVSVNLAVALARLGKKVGIIDADIYGFSVPDMMGIEKRPIVRGDKIIPVERLGVKVISMGFFVEDNAPVIWRGPMLGKMLNHFFTEVEWGDLDYLVLDLPPGTGDVALDVHSMLPSCKEIIVTTPHPTAAFVAARAGAMALRTEHSILGVVENMAYFESKVTGEKEYVFGKGGGDKLATELQTNVLGRIPLQQPDWNKEDFAPSVYEDTHTTGIIYSKIAETVIDKTAVTQKLEHHHHHH”, the protein production was “not failed”. For “MVTLCQVFGVHRSSYRYWKNRPEKPDGRRAVLRSQVLELHGISHGSAGARSIATMATRRGYQMGRWLAGRLMKELGLVSCQQPTHRYKRGGHEHVAMPKWVILYCRRWMEAPMQSCENGELITRTRGTPQGGVISPLLANLFLHYAFDLWMEREYRGVPFERYADDIVVHCSRMSDATRLKNRLSERFSEVGLVLNAGKTNIAYIDTFKRRNVATSFTFLGYDFKVRTLKNFKGERYRKCMPGASNAAMRKITETIKKWRIHRSTAESLLDFARRYNTIVRGWIEYYGKFWSRNFNYRLWSAMQSRLLKWMQSKYRLSNRKAQRKLTLVRKEYPKLFVHWYLLRASNE”, the protein production was “failed”. For “MVTNQKHLEDFGYLKMTQKEGTILPEEYVSIIQHPKGGPKSVTLRENKVSGLKENFIHYLTDTEPGSSGSPVFNDQWTLVALHHSGVPNPEIKDLEHHHHHH”, the protein production was “not failed”. For “MVTQKQRRLWAFLAALACVMWGISGLFAKSLFNISSDITPMWLSQIRMVTSGIILLIVAGILKQKPIATMKNKHDAWVIIAYGIFGLLPVQLFYFIVVQQANASIATILQFVGPFFVMGYLAFTHKQVMRRIDVIAAIFAFIGVVLLATHGRFNHLAITPSVLFWGLLSAVGVATNTLIPIGVLKRVSSLVVTGWGLLSAGICLMIVHPQMPHIPNTPHVWLDVLAVIVIGTLIPFQLMTNSLRFIKASTASLLDAFEPFSATLGSVLCFGLVMTPMDWIGSILVVLAAMALNISPKKKKGKLDGKSQD”, the protein production was “failed”. For “MVTSSQVMLMPAHDSAKPTGFGIMVTSLDLLRDHQKVIHTLWFIDDVVARELGGFDGFCRRERVLLLFVDSTNTTLSFTRNDMTCVPRQGGADSDHWLFKRHLALLLPLSFAQVYEGFISFYEEEDKHISWDIKSCSSSSHQ”, the protein production was “failed”.

Source: a protein production outcome set (Wang et al. 2014)
